B1: UBE2R2 (parent)
chain: DPQSGELPSERWNPTQNVRTILLS
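Note: lentivirally expressed fusions sorted by FACS into six bins by GFP to DsRed ratio, PSI derived from sequencing read proportions per bin multiplied by bin number.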

This data set covers variants of B1. Description: protein stability index of a GFP-peptide fusion (GPS, HEK-293T) (PSI 1-6); higher = more stable. The conditions noted are these: c terminus: a fixed tail appended.
Turning to DPQSMELPSERWNPTQNVRTILLS, the protein stability index was 3.41.

Consider DPQSFELPSERWNPTQNVRTILLS, for which the protein stability index stood at 3.18.

Take DPQSYELPSERWNPTQNVRTILLS: the protein stability index amounted to 3.17.

As for DPQSIELPSERWNPTQNVRTILLS, the protein stability index was 3.24.

Consider DPQSEELPSERWNPTQNVRTILLS, for which the protein stability index worked out at 4.5.

For the variant DPQSDELPSERWNPTQNVRTILLS, the protein stability index worked out at 3.98.

Consider DPQSGEAPSERWNPTQNVRTILLS, for which the protein stability index was determined as 4.25.

For DPQSGEWPSERWNPTQNVRTILLS, the protein stability index came out at 2.62.

For DPQSGETPSERWNPTQNVRTILLS, the protein stability index is 4.12.

Take DPQSGEKPSERWNPTQNVRTILLS: the protein stability index is 3.81.

For DPQSGERPSERWNPTQNVRTILLS, the protein stability index was 3.81.

For the variant DPQSGEIPSERWNPTQNVRTILLS, the protein stability index came to 3.35.

For DPQSGEQPSERWNPTQNVRTILLS, the protein stability index stood at 4.32.

Regarding DPGSGELPSERWNPTQNVRTILLS, the protein stability index is 3.79.

With DPCSGELPSERWNPTQNVRTILLS, the protein stability index amounted to 3.81.

With DPMSGELPSERWNPTQNVRTILLS, the protein stability index amounted to 3.53.

Regarding DPQSGELPSERWNPTQNVGTILLS, the protein stability index came out at 3.7.

With DPQSGELPSERWNPTQNVMTILLS, the protein stability index stood at 2.86.

Regarding DPQSGELPSERWNPTQNVLTILLS, the protein stability index came out at 2.61.

In the case of DPQSGELPSERWNPTQNVCTILLS, the protein stability index worked out at 3.05.

DPQSGELPSERWNPTQNVVTILLS: the protein stability index was 2.28.

Turning to DPQSGELPSERWNPTQNVHTILLS, the protein stability index amounted to 3.43.

As for DPQSGELPSERWNPTQNVETILLS, the protein stability index was determined as 4.76.

On to DPQSGELPSERWNPTQNVKTILLS, for which the protein stability index stood at 3.95.

In the case of DPQSGELPSERWNPTQNVFTILLS, the protein stability index turned out to be 2.6.

Consider DPQSGELPSERWNPTQNVITILLS, for which the protein stability index stood at 2.41.

Consider DPQSGELPSERWNPTQNVRVILLS, for which the protein stability index turned out to be 2.05.

Take DPQSGELPSERWNPTQNVRYILLS: the protein stability index is 2.46.

For the variant DPQSGELPSERWNPTQNVRGILLS, the protein stability index was 2.9.

Consider DPQSGELPSERWNPTQNVRNILLS, for which the protein stability index stood at 3.71.

In the case of DPQSGELPSERWNPTQNVRQILLS, the protein stability index was 3.76.

Take DPQSGELPSERWNPTQNVRDILLS: the protein stability index was 3.61.

Take DPQSGELPSERWNPTQNVRMILLS: the protein stability index was found to be 3.67.

On to DPQSGELPSERWNPRQNVRTILLS, for which the protein stability index was found to be 3.76.

Consider DPQSGELPSERWNPDQNVRTILLS, for which the protein stability index is 4.15.

Take DPQSGELPSERWNPVQNVRTILLS: the protein stability index was found to be 3.48.

Regarding DPQSGELPSERWNPCQNVRTILLS, the protein stability index amounted to 3.26.

For the variant DPQSGELPSERWNPKQNVRTILLS, the protein stability index was determined as 3.5.

In the case of DPQSGELPSERWNPMQNVRTILLS, the protein stability index is 2.86.

For the variant DPQSGELPSERWNPSQNVRTILLS, the protein stability index was found to be 3.39.

Consider DPQSGELPSERWNPHQNVRTILLS, for which the protein stability index amounted to 3.79.

As for DPQSGELPSERWNPFQNVRTILLS, the protein stability index came out at 2.51.

Regarding DPQSGELPSERWNPNQNVRTILLS, the protein stability index was 3.89.

For DPQSGELPSERWNPWQNVRTILLS, the protein stability index turned out to be 2.13.

Regarding DPQSGELPSERWNPTQNVRTILTS, the protein stability index was 4.12.

Take DPQSGELPSERWNPTQNVRTILDS: the protein stability index was found to be 4.91.

Regarding DPQSGELPSERWNPTQNVRTILSS, the protein stability index worked out at 4.08.

As to DPQSGELPSERWNPTQNVRTILMS, the protein stability index was found to be 3.7.

Consider DPQSGELPSERWNPTQNVRTILGS, for which the protein stability index is 3.77.

For DPQSGELPSERWNPTQNVRTYLLS, the protein stability index worked out at 3.14.

Turning to DPQSGELPSERWNPTQNVRTPLLS, the protein stability index is 4.3.

With DPQSGELPSERWNPTQNVRTELLS, the protein stability index was determined as 4.53.

With DPQSGELPSERWNPTQNVRTSLLS, the protein stability index was determined as 4.33.

For DPQSGELPSERWNPTQNVRTVLLS, the protein stability index worked out at 3.9.

DPQSGELPSERWNPTQNVRTDLLS: the protein stability index was 4.6.

With DPQSGELPSERWNPTQNVRTHLLS, the protein stability index came out at 4.49.

Take DPQSGELPSERWNPTQNVRTTLLS: the protein stability index was determined as 4.26.

As to DPQSGELPSERWNPTQNVRTMLLS, the protein stability index was found to be 4.12.

Turning to DPQSGELPSERWNPTQNVRTCLLS, the protein stability index came to 4.33.

Consider DPQSGELPSERWNPTQNVRTILLI, for which the protein stability index was determined as 1.84.

DPQSGELPSERWNPTQNVRTILLL: the protein stability index turned out to be 1.56.

Take DPQSGELPSERWNPTQNVRTILLQ: the protein stability index was 4.07.

With DPQSGELPSERWNPTQNVRTILLP, the protein stability index was 3.95.

Consider DPQSGELPSERWNPTQNVRTILLN, for which the protein stability index came out at 3.86.

Regarding DPQSGELPSERWNPTQNVRTILLH, the protein stability index turned out to be 3.58.

For the variant DPQSGELPSERWNPTQNVRTILLT, the protein stability index was determined as 3.14.

With DPQSGELPSERWNPTQNVRTILLA, the protein stability index is 2.82.

In the case of DPQSGELPSRRWNPTQNVRTILLS, the protein stability index worked out at 3.17.

As for DPQSGELPSQRWNPTQNVRTILLS, the protein stability index is 3.5.

Regarding DPQSGELPSCRWNPTQNVRTILLS, the protein stability index was found to be 2.81.

With DPQSGELPSFRWNPTQNVRTILLS, the protein stability index worked out at 2.45.

For the variant DPQSGELPSWRWNPTQNVRTILLS, the protein stability index is 2.39.

As to DPQSGELPSNRWNPTQNVRTILLS, the protein stability index came out at 3.35.

Regarding DPQSGELPSTRWNPTQNVRTILLS, the protein stability index came to 3.48.

As to DPQSGELPSERWCPTQNVRTILLS, the protein stability index amounted to 2.78.

For the variant DPQSGELPSERWHPTQNVRTILLS, the protein stability index is 3.3.

Take DPQSGELPSERWAPTQNVRTILLS: the protein stability index stood at 3.78.

Consider DPQSGELPSERWWPTQNVRTILLS, for which the protein stability index amounted to 2.87.

DPQSGELPSERWFPTQNVRTILLS: the protein stability index worked out at 2.66.

As for DPQSGELPSERWKPTQNVRTILLS, the protein stability index came to 3.88.

Take DPQSGELPSERWLPTQNVRTILLS: the protein stability index came out at 3.47.

In the case of DPQSGELPSERWYPTQNVRTILLS, the protein stability index came to 3.16.

Turning to LPQSGELPSERWNPTQNVRTILLS, the protein stability index came out at 3.58.

Consider EPQSGELPSERWNPTQNVRTILLS, for which the protein stability index was determined as 3.31.

Turning to GPQSGELPSERWNPTQNVRTILLS, the protein stability index worked out at 3.26.

In the case of SPQSGELPSERWNPTQNVRTILLS, the protein stability index was determined as 2.25.

For QPQSGELPSERWNPTQNVRTILLS, the protein stability index stood at 3.88.

Take CPQSGELPSERWNPTQNVRTILLS: the protein stability index came to 3.93.

Regarding DPQRGELPSERWNPTQNVRTILLS, the protein stability index amounted to 3.87.

Turning to DPQQGELPSERWNPTQNVRTILLS, the protein stability index was 3.68.

In the case of DPQIGELPSERWNPTQNVRTILLS, the protein stability index is 3.4.

Consider DPQTGELPSERWNPTQNVRTILLS, for which the protein stability index amounted to 3.16.

Regarding DPQHGELPSERWNPTQNVRTILLS, the protein stability index was 3.45.

On to DPQSGELWSERWNPTQNVRTILLS, for which the protein stability index is 3.05.

These data come from the supplement of paper PMC10567573.
